Results published in IntAct's records for PubMed 21447556.

B1: Protein piwi (Drosophila melanogaster (Fruit fly)), Q9VKM1 (parent)
chain: MADDQGRGRRRPLNEDDSSTSRGSGDGPRVKVFRGSSSGDPRADPRIEASRERRALEEAPRREGGPTERKPWGDQYDYLNTRPAELVSKKGTDGVPVMLQTNFFRLKTKPEWRIVHYHVEFEPSIENPRVRMGVLSNHANLLGSGYLFDGLQLFTTRKFEQEITVLSGKSKLDIEYKISIKFVGFISCAEPRFLQVLNLILRRSMKGLNLELVGRNLFDPRAKIEIREFKMELWPGYETSIRQHEKDILLGTEITHKVMRTETIYDIMRRCSHNPARHQDEVRVNVLDLIVLTDYNNRTYRINDVDFGQTPKSTFSCKGRDISFVEYYLTKYNIRIRDHNQPLLISKNRDKALKTNASELVVLIPELCRVTGLNAEMRSNFQLMRAMSSYTRMNPKQRTDRLRAFNHRLQNTPESVKVLRDWNMELDKNVTEVQGRIIGQQNIVFHNGKVPAGENADWQRHFRDQRMLTTPSDGLDRWAVIAPQRNSHELRTLLDSLYRAASGMGLRIRSPQEFIIYDDRTGTYVRAMDDCVRSDPKLILCLVPNDNAERYSSIKKRGYVDRAVPTQVVTLKTTKNRSLMSIATKIAIQLNCKLGYTPWMIELPLSGLMTIGFDIAKSTRDRKRAYGALIASMDLQQNSTYFSTVTECSAFDVLANTLWPMIAKALRQYQHEHRKLPSRIVFYRDGVSSGSLKQLFEFEVKDIIEKLKTEYARVQLSPPQLAYIVVTRSMNTRFFLNGQNPPPGTIVDDVITLPERYDFYLVSQQVRQGTVSPTSYNVLYSSMGLSPEKMQKLTYKMCHLYYNWSGTTRVPAVCQYAKKLATLVGTNLHSIPQNALEKKFYYL
partner: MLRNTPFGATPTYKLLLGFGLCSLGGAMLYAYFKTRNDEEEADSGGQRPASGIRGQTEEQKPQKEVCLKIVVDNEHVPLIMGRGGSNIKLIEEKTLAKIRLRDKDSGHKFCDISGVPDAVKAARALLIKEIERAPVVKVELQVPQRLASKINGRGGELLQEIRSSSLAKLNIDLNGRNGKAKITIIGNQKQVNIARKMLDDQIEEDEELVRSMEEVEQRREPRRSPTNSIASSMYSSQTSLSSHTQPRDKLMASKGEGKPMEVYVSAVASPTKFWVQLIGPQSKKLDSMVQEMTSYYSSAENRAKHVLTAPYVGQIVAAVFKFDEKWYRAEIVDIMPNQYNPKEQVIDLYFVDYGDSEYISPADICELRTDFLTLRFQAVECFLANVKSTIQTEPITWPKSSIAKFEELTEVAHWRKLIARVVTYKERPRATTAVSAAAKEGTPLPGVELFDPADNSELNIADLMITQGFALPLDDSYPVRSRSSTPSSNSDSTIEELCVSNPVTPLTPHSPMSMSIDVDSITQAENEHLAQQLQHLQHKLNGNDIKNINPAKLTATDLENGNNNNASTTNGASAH
B2: Protein argonaute-3 (Drosophila melanogaster (Fruit fly)), Q7PLK0 (parent)
chain: MSGRGNLLSLFNKNAGNMGKSISSKDHEIDSGLDFNNSESSGERLLSSHNIETDLITTLQHVNISVGRGRARLIDTLKTDDHTSNQFITSESKENITKKTKGPESEAIASENGLFFPDLIYGSKGSSVNIYCNYLKLTTDESKGVFNYEVRFFPPIDSVHLRIKYLNDHKDKLGGTKTFDGNTLYLPILLPNKMTVFISKAEDVELQIRILYKKKEEMRNCTQLYNILFDRVMKVLNYVKFDRKQFDPSRPKIIPLAKLEVWPGYVTAVDEYKGGLMLCCDVSHRILCQKTVLEMLVDLYQQNVEHYQESARKMLVGNIVLTRYNNRTYKINDICFDQNPTCQFEIKTGCTSYVEYYKQYHNINIKDVNQPLIYSIKKSRGIPAERENLQFCLIPELCYLTGLRDEVRSDNKLMREIATFTRVSPNQRQMALNKFYENVSNTPAAQEILNSWGLSLTNNSNKISGRQMDIEQIYFSKISVSAGRSAEFSKHAVTNEMLKVVHLSKWIIIHLRNYRQAATSLLDNMKQACESLGMNISNPTMISLDHDRIDAYIQALRRNITMNTQMVVCICHNRRDDRYAAIKKICCSEIPIPSQVINAKTLQNDLKIRSVVQKIVLQMNCKLGGSLWTVKIPFKNVMICGIDSYHDPSNRGNSVAAFVASINSSYSQWYSKAVVQTKREEIVNGLSASFEIALKMYRKRNGKLPTNIIIYRDGIGDGQLYTCLNYEIPQFEMVCGNRIKISYIVVQKRINTRIFSGSGIHLENPLPGTVVDQHITKSNMYDFFLVSQLVRQGTVTPTHYVVLRDDCNYGPDIIQKLSYKLCFLYYNWAGTVRIPACCMYAHKLAYLIGQSIQRDVAEALSEKLFYL
partner: B1 partner

Variants of: B1
Conditions: with tdrkh_drome papi

Variant	effect of a mutation on the interaction
R7K;R9K	disrupting interaction strength

Variants of: B2
Conditions: with tdrkh_drome papi

Variant	effect of a mutation on the interaction
R68K;R70K;R72K	disrupting interaction strength
